B1: Hairpin Ribozyme (parent)
chain: GUCCUCUUUCACGUGCGCGUGAAAGAGAGAAGUGAACCAGAGAAACACACGUUGUGGUAUAUUACCUGGUA

In the data set the parent is B1. Nature of the data set: self-cleavage, relative activity (ratio to wild type); higher = more cleavage; co-transcriptional.
For the variant A24G C37U, the self-cleavage was 0.294.

On to A24G C37G, for which the self-cleavage is 0.359.

Consider A24U C46U, for which the self-cleavage came to 0.264.

With A24U C46G, the self-cleavage was determined as 0.113.

A24C A64G: the self-cleavage came out at 0.503.

For the variant G25A A26C, the self-cleavage stood at 0.124.

Consider G25A A26G, for which the self-cleavage was 0.298.

As to A24G A39U, the self-cleavage stood at 0.473.

Consider A23U C48A, for which the self-cleavage was 0.157.

As for G25U A30C, the self-cleavage was 0.146.

For the variant G25A G51U, the self-cleavage is 0.724.

Turning to A24C A35C, the self-cleavage is 0.778.

With A24C U52C, the self-cleavage came to 0.872.

Regarding A23U A39U, the self-cleavage is 0.385.

A23U A39G: the self-cleavage worked out at 0.298.

Consider G25U C66G, for which the self-cleavage amounted to 0.177.

With G25U C66A, the self-cleavage turned out to be 0.182.

Consider A23U C46A, for which the self-cleavage came out at 0.224.

For A23U C46G, the self-cleavage is 0.0441.

As to A24C U62A, the self-cleavage was found to be 0.3.

As for A24C U62C, the self-cleavage came out at 0.297.

Regarding G25A G34C, the self-cleavage came out at 1.34.

As to A24U U62C, the self-cleavage was determined as 0.293.

A24U U62A: the self-cleavage was found to be 0.2.

A24C A30U: the self-cleavage was 0.146.

Regarding A24C A30C, the self-cleavage worked out at 0.242.

On to A24C U33G, for which the self-cleavage came out at 0.152.

G25A A31U: the self-cleavage came out at 0.0553.

On to G25U G29C, for which the self-cleavage is 0.153.

Take G25U G29A: the self-cleavage was 0.149.

For the variant A24C A61C, the self-cleavage was determined as 0.139.

As to A24C A61G, the self-cleavage was 0.156.

With A24C A61U, the self-cleavage is 0.189.

With A24C U53A, the self-cleavage turned out to be 1.08.

As to A24C U53C, the self-cleavage came out at 0.735.

Regarding G25U A26C, the self-cleavage is 0.21.

Consider G25U A26G, for which the self-cleavage came out at 0.421.

On to A24G C65G, for which the self-cleavage amounted to 0.296.

G25U A36G: the self-cleavage came out at 0.639.

On to G25A A35U, for which the self-cleavage stood at 0.39.

Turning to G25A A35G, the self-cleavage came out at 0.738.

A24G A31G: the self-cleavage is 0.662.

As to A24U A39U, the self-cleavage is 0.38.

For G25U G40U, the self-cleavage is 0.132.

For the variant A24U A44G, the self-cleavage worked out at 0.119.

For A24U A44C, the self-cleavage amounted to 0.252.

Take A24G G57U: the self-cleavage turned out to be 0.307.

In the case of A24U G25U, the self-cleavage came out at 0.682.

As for A24U U67A, the self-cleavage amounted to 0.0716.

For A24G A36U, the self-cleavage was 0.397.

On to A24U U58C, for which the self-cleavage turned out to be 0.834.

As for A24U U58A, the self-cleavage was found to be 0.724.

On to A24U U58G, for which the self-cleavage amounted to 0.483.

A24G A43C: the self-cleavage turned out to be 0.19.

For A24G A43U, the self-cleavage is 0.104.

Consider A23U G32C, for which the self-cleavage came out at 0.231.

Take G25U G27U: the self-cleavage came to 0.17.

For G25U G27A, the self-cleavage stood at 0.131.

Turning to G25U G27C, the self-cleavage was 0.254.

As for G25C C46A, the self-cleavage was 0.129.

Regarding A23U A30U, the self-cleavage came out at 0.0692.

Regarding A23U A61U, the self-cleavage was 0.0982.

On to G25C A30G, for which the self-cleavage turned out to be 0.157.

Consider G25C A30C, for which the self-cleavage came to 0.21.

For the variant G25C A30U, the self-cleavage stood at 0.116.

As for A24G U67G, the self-cleavage came out at 0.263.

For the variant A24G U67C, the self-cleavage was found to be 0.222.

With A24U G68U, the self-cleavage is 0.22.

Consider A24U A45C, for which the self-cleavage amounted to 0.179.

Regarding G25A G54A, the self-cleavage is 0.292.

With G25A G54C, the self-cleavage came to 0.219.

In the case of G25A G54U, the self-cleavage is 0.392.

As for A23U G29U, the self-cleavage was 0.142.

In the case of A23U U62G, the self-cleavage was 0.171.

As for A23U U62C, the self-cleavage was determined as 0.247.

Regarding A24U G56A, the self-cleavage amounted to 0.212.

Take A24G C38U: the self-cleavage stood at 0.31.

In the case of G25C U33A, the self-cleavage stood at 0.0816.

A24G G69C: the self-cleavage came to 0.238.

Turning to G25A A28G, the self-cleavage turned out to be 0.849.

Regarding G25C C37U, the self-cleavage turned out to be 0.502.

Take A24U G29C: the self-cleavage is 0.115.

A24U A61G: the self-cleavage turned out to be 0.231.

With A23U C65G, the self-cleavage was 0.159.

In the case of A24G G34C, the self-cleavage amounted to 1.34.

For the variant A24G G34U, the self-cleavage is 0.956.

As to A24G G34A, the self-cleavage was 0.862.

As for A24G A30C, the self-cleavage was found to be 0.119.

For the variant A24G A30U, the self-cleavage is 0.124.

Turning to A24U U33A, the self-cleavage came out at 0.11.

As for A24U U33G, the self-cleavage was found to be 0.135.

Turning to A24C C38A, the self-cleavage turned out to be 0.228.

G25C A61G: the self-cleavage is 0.115.

Turning to G25U G56C, the self-cleavage was determined as 0.17.

G25U G56A: the self-cleavage was 0.21.

As to G25U G56U, the self-cleavage is 0.223.

As to G25A G29C, the self-cleavage turned out to be 0.118.

With G25A G29U, the self-cleavage is 0.164.

Take A24G A71G: the self-cleavage is 1.07.

Regarding A24G A71U, the self-cleavage stood at 0.667.

For the variant G25A G56C, the self-cleavage amounted to 0.117.

As to G25A G56A, the self-cleavage worked out at 0.105.

With A24G G32A, the self-cleavage stood at 0.14.

Regarding A24G G32C, the self-cleavage came out at 0.242.

On to A24G G32U, for which the self-cleavage came to 0.0918.

Regarding G25A G32A, the self-cleavage stood at 0.216.

With A23U A64C, the self-cleavage is 0.221.

As for A23U A64U, the self-cleavage was 0.178.

Take A23U A64G: the self-cleavage was determined as 0.474.

As to A24C A39C, the self-cleavage amounted to 0.554.

In the case of A24C G29U, the self-cleavage is 0.0732.

As for A24C G29A, the self-cleavage worked out at 0.0206.

For A24C G29C, the self-cleavage stood at 0.208.

As for A24U A47U, the self-cleavage is 0.144.

On to A24U A36C, for which the self-cleavage is 0.517.

For A24C U70A, the self-cleavage turned out to be 0.985.

Turning to G25A C38A, the self-cleavage was found to be 0.173.

On to G25A C38G, for which the self-cleavage came out at 0.252.

As for G25U A35G, the self-cleavage is 0.656.

With A24C C37A, the self-cleavage is 0.352.

With A24C A26C, the self-cleavage was found to be 0.338.

In the case of A24C A26U, the self-cleavage worked out at 0.463.

For the variant A24C A26G, the self-cleavage is 0.835.

As to A24C C48G, the self-cleavage was 0.133.

Regarding G25A U67A, the self-cleavage amounted to 0.118.

In the case of G25C U67C, the self-cleavage is 0.134.

Turning to A23U A71G, the self-cleavage was found to be 0.876.

With A24G G54A, the self-cleavage came out at 0.387.

As for A24G G54U, the self-cleavage amounted to 0.607.

In the case of G25A A47U, the self-cleavage came out at 0.108.

G25U C37U: the self-cleavage is 0.427.

Turning to G25U C37G, the self-cleavage turned out to be 0.182.

Take A24U G27U: the self-cleavage was determined as 0.199.

Turning to A24U A35G, the self-cleavage came out at 0.751.

On to A24G U63G, for which the self-cleavage is 0.154.

For G25A A61G, the self-cleavage amounted to 0.208.

As for G25U A28C, the self-cleavage was 0.233.

Regarding G25U A28G, the self-cleavage is 0.971.

Consider A24C A71U, for which the self-cleavage is 0.696.

As for A24C A49G, the self-cleavage was 0.535.

Take G25U G42A: the self-cleavage amounted to 0.144.

Turning to G25C U60A, the self-cleavage came out at 0.392.

On to G25C U60G, for which the self-cleavage is 0.297.

As to A24G A64G, the self-cleavage is 0.533.

For the variant A23U A45C, the self-cleavage is 0.111.

As for A23U G69A, the self-cleavage was determined as 0.335.

For the variant A23U G69C, the self-cleavage was 0.325.

For G25A U52C, the self-cleavage worked out at 0.7.

On to G25C A41C, for which the self-cleavage turned out to be 0.622.

As for G25C A41G, the self-cleavage was found to be 0.298.

As for A23U C37A, the self-cleavage amounted to 0.324.

With G25A G27C, the self-cleavage came out at 0.155.

As to A24G G56C, the self-cleavage amounted to 0.14.

A24G G56U: the self-cleavage was found to be 0.122.

For G25U G32A, the self-cleavage is 0.128.

Consider A24C A47U, for which the self-cleavage was 0.0898.

Turning to A24U A43G, the self-cleavage worked out at 0.159.

For G25A U70A, the self-cleavage came out at 0.519.

Consider A23U U60A, for which the self-cleavage was 0.819.

In the case of A24G G25C, the self-cleavage is 0.668.

Turning to A24G G25A, the self-cleavage amounted to 0.591.

As for A24U G34A, the self-cleavage is 1.02.

With A24U G34U, the self-cleavage was found to be 1.22.

For A24U G34C, the self-cleavage amounted to 1.18.

As to G25C C50U, the self-cleavage came to 0.192.

Consider A23U G40U, for which the self-cleavage turned out to be 0.134.

Consider A23U G40C, for which the self-cleavage was determined as 0.1.

(Values after the RNAGym collection of RNA variant scans (doi:10.7554/elife.80360).)
